Experimental data published in the supplement of paper PMC10567573.

B1: KRT15 (parent)
chain: SNFHINVEESVDGQVVSSHKREI
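Further: lentivirally expressed fusions sorted by FACS into six bins by GFP to DsRed ratio, PSI derived from sequencing read proportions per bin multiplied by bin number.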

Variants of: B1
Assay: protein stability index of a GFP-peptide fusion (GPS, HEK-293T) (PSI 1-6); higher = more stable
Conditions: c terminus: native
In the case of SNFIINVEESVDGQVVSSHKREI [H4I], the protein stability index is reported as 2.12.
SNFKINVEESVDGQVVSSHKREI [H4K] showed a protein stability index of 1.94.
SNFNINVEESVDGQVVSSHKREI [H4N] showed a protein stability index of 2.09.
SNFGINVEESVDGQVVSSHKREI [H4G] gave a protein stability index of 2.5.
For SNFVINVEESVDGQVVSSHKREI [H4V], the protein stability index was 1.03.
For SNFSINVEESVDGQVVSSHKREI [H4S], the protein stability index was 2.16.
SNFHINVEESVDGQVVMSHKREI [S17M] showed a protein stability index of 1.29.
SNFHINVEESVDGQVVQSHKREI [S17Q] showed a protein stability index of 1.68.
SNFHINVEESVDGQVVKSHKREI [S17K] showed a protein stability index of 1.82.
With SNFHINVEESVDGQVVFSHKREI [S17F] the protein stability index was 2.65.
SNFHINVEESVDGQVVLSHKREI [S17L] gave a protein stability index of 2.06.
SNFHINVEESVDGQVVASHKREI [S17A] showed a protein stability index of 2.37.
Work on SNFHINVEESVDGQVVHSHKREI [S17H] yielded a protein stability index of 2.17.
With SNFHINVEESVDGQVVGSHKREI [S17G] the protein stability index was 2.73.
Variant SNFHINVEESVDGQVVPSHKREI [S17P] has a protein stability index of 1.43.
In the case of CNFHINVEESVDGQVVSSHKREI [S1C], the protein stability index is reported as 1.57.
Work on QNFHINVEESVDGQVVSSHKREI [S1Q] yielded a protein stability index of 1.92.
For TNFHINVEESVDGQVVSSHKREI [S1T], the protein stability index was 2.73.
In the case of PNFHINVEESVDGQVVSSHKREI [S1P], the protein stability index is reported as 2.35.
Variant DNFHINVEESVDGQVVSSHKREI [S1D] has a protein stability index of 3.04.
SNFHMNVEESVDGQVVSSHKREI [I5M] gave a protein stability index of 2.59.
Variant SNFHFNVEESVDGQVVSSHKREI [I5F] has a protein stability index of 2.22.
SNFHQNVEESVDGQVVSSHKREI [I5Q] showed a protein stability index of 3.1.
In the case of SNFHANVEESVDGQVVSSHKREI [I5A], the protein stability index is reported as 3.14.
Variant SNFHLNVEESVDGQVVSSHKREI [I5L] has a protein stability index of 1.71.
SNFHVNVEESVDGQVVSSHKREI [I5V] showed a protein stability index of 3.37.
Variant SNFHWNVEESVDGQVVSSHKREI [I5W] has a protein stability index of 1.63.
Variant SNFHDNVEESVDGQVVSSHKREI [I5D] has a protein stability index of 3.64.
With SNFHPNVEESVDGQVVSSHKREI [I5P] the protein stability index was 2.98.
For SNFHHNVEESVDGQVVSSHKREI [I5H], the protein stability index was 3.01.
Variant SNFHRNVEESVDGQVVSSHKREI [I5R] has a protein stability index of 2.67.
SNFHINVEESVDIQVVSSHKREI [G13I] gave a protein stability index of 2.02.
For SNFHINVEESVDHQVVSSHKREI [G13H], the protein stability index was 1.64.
For SNFHINVEESVDTQVVSSHKREI [G13T], the protein stability index was 2.18.
For SNFHINVEESVDDQVVSSHKREI [G13D], the protein stability index was 2.36.
With SNFHINVEESVDNQVVSSHKREI [G13N] the protein stability index was 2.3.
Work on SNFHINVEESVDQQVVSSHKREI [G13Q] yielded a protein stability index of 1.96.
SNFHINVEESVDCQVVSSHKREI [G13C] gave a protein stability index of 1.98.
With SNFHINVEEVVDGQVVSSHKREI [S10V] the protein stability index was 1.87.
SNFHINVEECVDGQVVSSHKREI [S10C] gave a protein stability index of 3.07.
Variant SNFHINVEEIVDGQVVSSHKREI [S10I] has a protein stability index of 1.34.
With SNFHINVEEDVDGQVVSSHKREI [S10D] the protein stability index was 2.95.
Work on SNFHINVEEHVDGQVVSSHKREI [S10H] yielded a protein stability index of 1.95.
SNFHINVEEEVDGQVVSSHKREI [S10E] showed a protein stability index of 2.57.
Variant SNFHINVEEPVDGQVVSSHKREI [S10P] has a protein stability index of 1.91.
SNFHINVEEKVDGQVVSSHKREI [S10K] gave a protein stability index of 1.5.
Work on SNFHINVEESVDGQVVSGHKREI [S18G] yielded a protein stability index of 1.54.
Variant SNFHINVEESVDGQVVSYHKREI [S18Y] has a protein stability index of 3.37.
SNFHINVEESVDGQVVSKHKREI [S18K] gave a protein stability index of 2.06.
For SNFHINVEESVDGQVVSMHKREI [S18M], the protein stability index was 1.
Work on SNFHINVEESVDGQVVSAHKREI [S18A] yielded a protein stability index of 1.37.
Variant SNFHINVEESVDGQVVSQHKREI [S18Q] has a protein stability index of 1.27.
For SNFHINVEESVDGQVVSEHKREI [S18E], the protein stability index was 3.06.
Work on SNFHINVEESVDGQVVSTHKREI [S18T] yielded a protein stability index of 1.63.
With SNFHIQVEESVDGQVVSSHKREI [N6Q] the protein stability index was 2.27.
SNFHIKVEESVDGQVVSSHKREI [N6K] gave a protein stability index of 1.78.
SNFHIGVEESVDGQVVSSHKREI [N6G] gave a protein stability index of 2.24.
With SNFHIEVEESVDGQVVSSHKREI [N6E] the protein stability index was 1.88.
In the case of SNFHISVEESVDGQVVSSHKREI [N6S], the protein stability index is reported as 1.63.
SNFHICVEESVDGQVVSSHKREI [N6C] gave a protein stability index of 1.9.
Work on SNFHIIVEESVDGQVVSSHKREI [N6I] yielded a protein stability index of 3.69.
With SNFHILVEESVDGQVVSSHKREI [N6L] the protein stability index was 2.23.
In the case of SNFHIFVEESVDGQVVSSHKREI [N6F], the protein stability index is reported as 2.11.
SNFHIYVEESVDGQVVSSHKREI [N6Y] showed a protein stability index of 1.06.
In the case of SNFHINVEESVDGRVVSSHKREI [Q14R], the protein stability index is reported as 2.01.
In the case of SNFHINVEESVDGNVVSSHKREI [Q14N], the protein stability index is reported as 2.05.
Work on SNFHINVEESVDGFVVSSHKREI [Q14F] yielded a protein stability index of 1.99.
SNFHINVEESVDGTVVSSHKREI [Q14T] gave a protein stability index of 2.12.
In the case of SNFHINVEESVDGIVVSSHKREI [Q14I], the protein stability index is reported as 1.55.
Work on SNFHINVEESVDGYVVSSHKREI [Q14Y] yielded a protein stability index of 1.72.
In the case of SNFHINVEESVDGDVVSSHKREI [Q14D], the protein stability index is reported as 2.33.
SNFHINVEESVDGQVVSSHKKEI [R21K] showed a protein stability index of 4.88.
In the case of SNFHINVEESVDGQVVSSHKGEI [R21G], the protein stability index is reported as 4.9.
For SNFHINVEESVDGQVVSSHKAEI [R21A], the protein stability index was 4.45.
With SNFHINVEESVDGQVVSSHKEEI [R21E] the protein stability index was 5.02.
For SNFHINVEESVDGQVVSSHKTEI [R21T], the protein stability index was 4.4.
Work on SNFHINVEESVDGQVVSSHKPEI [R21P] yielded a protein stability index of 3.5.
Work on SNFHINVEESVDGQVVSSHKSEI [R21S] yielded a protein stability index of 5.13.
For SNFHINVEESVDGQVVSSHKVEI [R21V], the protein stability index was 3.79.
In the case of SNFHINVEESVDGQVVSSHKQEI [R21Q], the protein stability index is reported as 4.48.
SNFHINVEMSVDGQVVSSHKREI [E9M] gave a protein stability index of 3.34.
Work on SNFHINVEASVDGQVVSSHKREI [E9A] yielded a protein stability index of 2.02.
Variant SNFHINVEFSVDGQVVSSHKREI [E9F] has a protein stability index of 3.74.
Variant SNFHINVECSVDGQVVSSHKREI [E9C] has a protein stability index of 2.73.
For SNFHINVESSVDGQVVSSHKREI [E9S], the protein stability index was 1.45.
Work on SNFHINVETSVDGQVVSSHKREI [E9T] yielded a protein stability index of 2.17.
Work on SNFHINVENSVDGQVVSSHKREI [E9N] yielded a protein stability index of 1.95.
For SNFHINVERSVDGQVVSSHKREI [E9R], the protein stability index was 1.89.
For SNFHINVEHSVDGQVVSSHKREI [E9H], the protein stability index was 2.1.
SNFHINVEESVMGQVVSSHKREI [D12M] gave a protein stability index of 2.69.
Work on SNFHINVEESVHGQVVSSHKREI [D12H] yielded a protein stability index of 2.38.
With SNFHINVEESVWGQVVSSHKREI [D12W] the protein stability index was 3.13.
Variant SNFHINVEESVQGQVVSSHKREI [D12Q] has a protein stability index of 2.07.
For SNFHINVEESVRGQVVSSHKREI [D12R], the protein stability index was 3.65.
Work on SNFHINVEESVIGQVVSSHKREI [D12I] yielded a protein stability index of 1.34.
SNFHINVEESVSGQVVSSHKREI [D12S] gave a protein stability index of 2.07.
For SNFHINVEESVYGQVVSSHKREI [D12Y], the protein stability index was 1.
